{"source": "patent US20230024461A1", "about": "“METHODS FOR DUAL DNA/PROTEIN TAGGING OF OPEN CHROMATIN” (Beth Israel Deaconess Medical Center, Inc., priority 2019, published 2023)", "molecules": {"B1": {"name": "TP3: Tn5 transposase-AEAAAKEAAAKA linker-APEX2 peroxidase fusion, C-terminal FLAG; amino acid SEQ ID NO: 27 (protein)", "chain": "MITSALHRAADWAKSVFSSAALGDPRRTARLVNVAAQLAKYSGKSITISSEGSKAMQEGAYRFIRNPNVSAEAIRKAGAMQTVKLAQEFPELLAIEDTTSLSYRHQVAEELGKLGSIQDKSRGWWVHSVLLLEATTFRTVGLLHQEWWMRPDDPADADEKESGKWLAAAATSRLRMGSMMSNVIAVCDREADIHAYLQDKLAHNERFVVRSKHPRKDVESGLYLYDHLKNQPELGGYQISIPQKGVVDKRGKRKNRPARKASLSLRSGRITLKQGNITLNAVLAEEINPPKGETPLKWLLLTSEPVESLAQALRVIDIYTHRWRIEEFHKAWKTGAGAERQRMEEPDNLERMVSILSFVAVRLLQLRESFTPPQALRAQGLLKEAEHVESQSAETVLTPDECQLLGYLDKGKRKRKEKAGSLQWAYMAIARLGGFMDSKRTGIASWGALWEGWEALQSKLDGFLAAKDLMAQGIKIAEAAAKEAAAKAGKSYPTVSADYQDAVEKAKKKLRGFIAEKRCAPLMLRLAFHSAGTFDKGTKTGGPFGTIKHPAELAHSANNGLDIAVRLLEPLKAEFPILSYADFYQLAGVVAVEVTGGPKVPFHPGREDKPEPPPEGRLPDPTKGSDHLRDVFGKAMGLTDQDIVALSGGHTIGAAHKERSGFEGPWTSNPLIFDNSYFTELLSGEKEGLLQLPSDKALLSDPVFRPLVDKYAADEDAFFADYAEAHQKLSELGFADADYKDDDDK", "modifications": "C-terminal FLAG"}}, "key": {"HEK293T nuclei": {"test_system": "HEK293T nuclei", "assay": "iDAPT protein labeling, western blot of labeled nuclear lysates", "assay_type": "biochemical, human", "conditions": "extracted HEK293T nuclei", "protocol": "(§1) DNA and protein tagging by iDAPT. All iDAPT proteomic labeling assays were performed as described below unless indicated otherwise. 2.5 μmol MEDS-A/B, 2 μmol enzyme, and 1 μmol hemin chloride per channel were incubated at room temperature for 1 hour. 1e7 cells per sample were washed (500×g, 5 minutes, 4° C.), lysed and triturated in 100 μL LB1 (10 mM Tris-HCl pH 7.5, 10 mM NaCl, 3 mM MgCl2, 1% BSA, 0.01% digitonin, 0.1% Tween-20, 0.1% NP-40, and 1× cOmplete EDTA-free protease inhibitor cocktail [Roche]) for 3 minutes, and subsequently supplemented with an additional 1 mL of LB2 (10 mM Tris-HCl pH 7.5, 10 mM NaCl, 3 mM MgCl2, 1% BSA, 0.1% Tween-20, and 1× protease inhibitor). Nuclei were pelleted (500×g, 10 minutes, 4° C.), resuspended with tagmentation reaction mixture (20% dimethylformamide, 10 mM MgCl2, 20 mM Tris-HCl pH 7.5, 33% 1×PBS, 1% BSA, 0.01% digitonin, 0.1% Tween-20, 500 μM biotin-phenol, 1× protease inhibitor, and 2 pmol enzyme equivalent of enzyme:DNA:heme complex in a total volume of 500 μL), and incubated at 37° C. for 30 minutes with agitation on a thermomixer (1,000 rpm). 5 μL of tagmentation mix was saved for quality assessment as described above for ATAC-seq/iDAPT-seq sample preparation. The remaining nuclear suspension was then washed 2× with 1×PBS supplemented with 500 μM biotin-phenol, 1% BSA, 0.1% Tween-20, and 1× protease inhibitor (3000×g, 5 minutes, 4° C.) and labeled with 1 mM hydrogen peroxide and 500 μM biotin-phenol for 1 minute in 1×PBS with 1× protease inhibitor in a volume of 500 μL. Peroxidation reactions were quenched with 500 μL 2× quenching buffer (10 mM Trolox, 20 mM sodium ascorbate, 20 mM NaN3, and 1× protease inhibitor in 1×PBS). Labeled nuclei were then pelleted, washed with 1× quenching buffer, resuspended in 500 μL RIPA containing protease inhibitors, and frozen at −80° C. Lysates were thawed on ice, sonicated via a Sonic Dismembrator 100 (Fisher Scientific, setting 3, 15 seconds, 4 pulses), and incubated on ice for 30 minutes after the addition of 1 μL benzonase (EMD Millipore). Lysates were clarified by centrifugation (15,000×g, 20 minutes, 4° C.), quantified via the detergent-compatible Bradford assay (Thermo Fisher Scientific), and subjected to either Western blotting or quantitative mass spectrometry analyses as described below. For NB4 cell analysis, an additional endogenous peroxidase blocking step was added after nuclear extraction and before tagmentation: nuclei were resuspended in 500 μL 1×PBS containing 1% BSA, 0.03% hydrogen peroxide, and 0.1% NaN3 and incubated on ice for 30 minutes. Nuclei were pelleted and washed 4× with 1×PBS/1% BSA (3000×g, 5 minutes, 4° C.). Residual hydrogen peroxide was monitored by colorimetric assessment of supernatant via Quantofix peroxides test stick (Sigma).\n(§2) Western blotting analysis. Whole cell or nuclear lysates were generated by resuspending cells or nuclei in RIPA (Boston BioProducts) supplemented with 1× cOmplete EDTA-free protease inhibitor cocktail (Roche). […] Lysates were clarified by centrifugation (15,000×g, 20 minutes, 4° C.) and their concentrations quantified via the detergent-compatible Bradford assay (Thermo Fisher Scientific). […] Membranes were blocked with 3% milk in PBS-T and incubated overnight with primary antibody and subsequently with secondary antibody after brief washing with PBS-T. Chemiluminescence was determined by applying ECL Western Blotting detection reagent (GE Healthcare) to membranes and imaging on an Amersham Imager 600 (GE Healthcare). […]"}, "K562 nuclei": {"test_system": "K562 nuclei", "assay": "iDAPT protein labeling, western blot of labeled nuclear lysates", "assay_type": "biochemical, human", "protocol": "as §1, §2"}}}
{"molecule": "B1", "values": [{"measurement": "peroxidase-dependent biotin signal", "setting": "HEK293T nuclei", "value": "strong peroxidase-dependent biotin signal"}, {"measurement": "biotin labeling", "setting": "K562 nuclei", "value": "highest levels of labeling"}]}
